In the Immune Epitope Database (IEDB):

Experiments:
HLA-B*40:02 = test: IEDB peptide-MHC binding, purified MHC/competitive/radioactivity; filed as Kd, often an IC50 or EC50 that approximates it; ≥ and ≤ were set here for values at or beyond the usual limits of such assays
HLA-B*45:01 = test: as above
HLA-B*44:02 = test: as above
HLA-B*40:01 = test: as above
HLA-B*18:01 [1] = test: as above
HLA-B*44:03 = test: as above
HLA-B*08:01 [2] = test: IEDB peptide-MHC binding, purified MHC/competitive/fluorescence; ≥ and ≤ were set here for values at or beyond the usual limits of such assays
HLA-A*24:02 = test: as above
HLA-A*02:01 [3] = test: as above
HLA-B*15:01 [4] = test: as above
HLA-A*02:06 [5] = test: IEDB peptide-MHC binding, purified MHC/competitive/fluorescence; filed as Kd, often an IC50 or EC50 that approximates it; ≥ and ≤ were set here for values at or beyond the usual limits of such assays; settings: source organism: Vibrio vulnificus YJ016
HLA-A*02:01 [6] = test: as above
HLA-C*14:02 = test: IEDB peptide-MHC binding, purified MHC/direct/fluorescence; filed as Kd, often an IC50 or EC50 that approximates it; ≥ and ≤ were set here for values at or beyond the usual limits of such assays; settings: source organism: Vibrio vulnificus YJ016
HLA-A*02:03 [7] = test: IEDB peptide-MHC binding, purified MHC/competitive/radioactivity; filed as Kd, often an IC50 or EC50 that approximates it; ≥ and ≤ were set here for values at or beyond the usual limits of such assays
HLA-A*02:06 [8] = test: as above
HLA-A*02:01 [9] = test: as above
HLA-A*02:17 = test: as above
HLA-A*68:02 [10] = test: as above; settings: source organism: Dengue virus 4 Philippines/H241/1956
HLA-B*08:01 [11] = test: as above; settings: source organism: Dengue virus 2 Jamaica/1409/1983
HLA-B*15:01 [12] = test: as above; settings: source organism: Dengue virus 2 Jamaica/1409/1983
HLA-B*15:17 = test: IEDB peptide-MHC binding, purified MHC/competitive/fluorescence; filed as Kd, often an IC50 or EC50 that approximates it; ≥ and ≤ were set here for values at or beyond the usual limits of such assays; settings: source organism: Zaire ebolavirus
HLA-B*27:03 = test: as above; settings: source organism: Zaire ebolavirus
HLA-A*26:01 = test: as above; settings: source organism: Zaire ebolavirus
HLA-A*69:01 = test: as above; settings: source organism: Zaire ebolavirus
HLA-B*57:01 = test: as above; settings: source organism: Zaire ebolavirus
HLA-B*39:01 = test: as above; settings: source organism: Zaire ebolavirus
HLA-B*51:01 = test: as above; settings: source organism: Zaire ebolavirus
HLA-B*18:01 [13] = test: as above; settings: source organism: Zaire ebolavirus
HLA-B*46:01 = test: as above; settings: source organism: Zaire ebolavirus
HLA-A*02:03 [14] = test: IEDB peptide-MHC binding, purified MHC/direct/fluorescence; filed as Kd, often an IC50 or EC50 that approximates it; ≥ and ≤ were set here for values at or beyond the usual limits of such assays; settings: source organism: Zaire ebolavirus
HLA-A*29:02 = test: as above; settings: source organism: Zaire ebolavirus
HLA-A*02:19 = test: as above; settings: source organism: Zaire ebolavirus
HLA-A*68:02 [15] = test: as above; settings: source organism: Zaire ebolavirus
HLA-A*02:12 = test: as above; settings: source organism: Zaire ebolavirus
HLA-A*24:03 = test: as above; settings: source organism: Zaire ebolavirus
HLA-A*03:01 = test: as above; settings: source organism: Zaire ebolavirus
HLA-A*02:16 = test: as above; settings: source organism: Zaire ebolavirus
HLA-A*02:11 = test: as above; settings: source organism: Zaire ebolavirus
HLA-B*15:01 [16] = test: as above; settings: source organism: Zaire ebolavirus
[17] = source organism: Mammarenavirus whitewaterense
[18] = source organism: Zaire ebolavirus
[19] = source organism: Mammarenavirus lassaense
[20] = source organism: Lassa virus Josiah
[21] = source organism: Dengue virus 4 Philippines/H241/1956
[22] = source organism: SARS coronavirus Tor2
[23] = source organism: Dengue virus 2 Jamaica/1409/1983
[24] = source organism: Mammarenavirus juninense
[25] = source organism: Mammarenavirus guanaritoense
[26] = source organism: Sudan ebolavirus
[27] = source organism: Dengue virus 2 Thailand/NGS-C/1944

LEITDVTTL
Kd (HLA-B*40:02; [17]): 0.0801 µM | Kd (HLA-B*45:01; [17]): ≥ 77.7 µM | Kd (HLA-B*44:02; [17]): 0.0257 µM | Kd (HLA-B*40:01; [17]): 0.127 µM | Kd (HLA-B*18:01 [1]; [17]): 0.462 µM | Kd (HLA-B*44:03; [17]): 0.0618 µM

MMKDEPVVF
IC50 (HLA-B*08:01 [2]; [18]): ≥ 205 µM | IC50 (HLA-A*24:02; [18]): 0.218 µM | IC50 (HLA-A*02:01 [3]; [18]): ≥ 116 µM | IC50 (HLA-B*15:01 [4]; [18]): 8.81 µM

FDAATTGSL
Kd (HLA-B*40:02; [19]): 2.29 µM | Kd (HLA-B*45:01; [19]): 14.4 µM | Kd (HLA-B*44:02; [19]): ≥ 22.2 µM | Kd (HLA-B*40:01; [19]): 16.6 µM | Kd (HLA-B*18:01 [1]; [19]): ≥ 38.9 µM | Kd (HLA-B*44:03; [19]): ≥ 44.6 µM

RQIQGIAAF
Kd (HLA-A*02:06 [5]): 0.0133 µM | Kd (HLA-A*02:01 [6]; source organism: Vibrio vulnificus YJ016): 1.65 µM | Kd (HLA-C*14:02): 2.62 µM

HSQGREAAV
IC50 (HLA-B*08:01 [2]; [18]): ≥ 172 µM | IC50 (HLA-A*02:01 [3]; [18]): ≥ 254 µM

SEGKDTPGGY
Kd (HLA-B*40:02; [20]): ≥ 70.8 µM | Kd (HLA-B*45:01; [20]): ≥ 70 µM | Kd (HLA-B*44:02; [20]): 1.45 µM | Kd (HLA-B*40:01; [20]): ≥ 25.4 µM | Kd (HLA-B*18:01 [1]; [20]): ≥ 59.6 µM | Kd (HLA-B*44:03; [20]): 1.75 µM

MVIGMAMTTV
Kd (HLA-A*02:03 [7]; [21]): 0.00014 µM | Kd (HLA-A*02:06 [8]; [21]): 0.0053 µM | Kd (HLA-A*02:01 [9]; [21]): 0.00936 µM | Kd (HLA-A*02:17; [21]): 0.132 µM | Kd (HLA-A*68:02 [10]): 0.00327 µM

NFLIKFLLI
IC50 (HLA-B*08:01 [2]; [18]): ≥ 1610 µM | IC50 (HLA-A*24:02; [18]): 0.0094 µM | IC50 (HLA-A*02:01 [3]; [18]): ≥ 614 µM

KEQYCALSPG
Kd (HLA-B*40:02; [22]): 0.831 µM | Kd (HLA-B*45:01; [22]): 0.259 µM | Kd (HLA-B*44:02; [22]): 2.61 µM | Kd (HLA-B*40:01; [22]): 4.67 µM | Kd (HLA-B*18:01 [1]; [22]): ≥ 70.5 µM | Kd (HLA-B*44:03; [22]): 3.46 µM

LMMATIGIAL
Kd (HLA-B*08:01 [11]): 0.398 µM | Kd (HLA-A*02:03 [7]; [23]): 0.00892 µM | Kd (HLA-A*02:06 [8]; [23]): 0.0136 µM | Kd (HLA-A*02:01 [9]; [23]): 0.0112 µM | Kd (HLA-A*02:17; [23]): 0.171 µM | Kd (HLA-B*15:01 [12]): 0.0065 µM

PDSCLNGKL
Kd (HLA-B*40:02; [24]): ≥ 77.2 µM | Kd (HLA-B*45:01; [24]): ≥ 25.6 µM | Kd (HLA-B*44:02; [24]): ≥ 77.9 µM | Kd (HLA-B*40:01; [24]): ≥ 67.9 µM | Kd (HLA-B*18:01 [1]; [24]): ≥ 20.1 µM | Kd (HLA-B*44:03; [24]): ≥ 78.1 µM

TMTLWYMWQV
Kd (HLA-A*02:06 [8]; [21]): 0.0745 µM | Kd (HLA-A*02:01 [9]; [21]): 0.0288 µM | Kd (HLA-A*02:17; [21]): 0.433 µM

HQKKNEISF
Kd (HLA-B*15:17): ≥ 20 µM | Kd (HLA-B*27:03): ≥ 20 µM | Kd (HLA-A*02:01 [6]; [18]): ≥ 20 µM | Kd (HLA-A*26:01): ≥ 20 µM | Kd (HLA-A*69:01): ≥ 20 µM | Kd (HLA-B*57:01): ≥ 20 µM | Kd (HLA-B*39:01): ≥ 20 µM | Kd (HLA-B*51:01): ≥ 20 µM | Kd (HLA-B*18:01 [13]): ≥ 20 µM | Kd (HLA-B*46:01): ≥ 20 µM | Kd (HLA-A*02:03 [14]): ≥ 20 µM | Kd (HLA-A*29:02): ≥ 20 µM | Kd (HLA-A*02:19): ≥ 20 µM | Kd (HLA-A*68:02 [15]): ≥ 20 µM | Kd (HLA-A*02:12): ≥ 20 µM | Kd (HLA-A*24:03): ≥ 20 µM | Kd (HLA-A*03:01): ≥ 20 µM | Kd (HLA-A*02:16): ≥ 20 µM | Kd (HLA-A*02:11): ≥ 20 µM | Kd (HLA-B*15:01 [16]): 0.233 µM | IC50 (HLA-B*08:01 [2]; [18]): 42.2 µM | IC50 (HLA-A*24:02; [18]): ≥ 116 µM | IC50 (HLA-B*15:01 [4]; [18]): 6.66 µM

YEERLNEQLL
Kd (HLA-B*40:02; [25]): 1.64 µM | Kd (HLA-B*45:01; [25]): ≥ 70 µM | Kd (HLA-B*44:02; [25]): ≥ 10 µM | Kd (HLA-B*40:01; [25]): 2.48 µM | Kd (HLA-B*18:01 [1]; [25]): 5.99 µM | Kd (HLA-B*44:03; [25]): 14.6 µM

TVIYRGVNF
IC50 (HLA-B*08:01 [2]; [26]): ≥ 88 µM | IC50 (HLA-A*24:02; [26]): 3.58 µM | IC50 (HLA-A*02:01 [3]; [26]): ≥ 790 µM | IC50 (HLA-B*15:01 [4]; [26]): 28.3 µM

TEIEPKLDG
Kd (HLA-B*40:02; [22]): ≥ 74.8 µM | Kd (HLA-B*45:01; [22]): ≥ 28.6 µM | Kd (HLA-B*44:02; [22]): 17.9 µM | Kd (HLA-B*40:01; [22]): ≥ 76.2 µM | Kd (HLA-B*18:01 [1]; [22]): ≥ 77.5 µM | Kd (HLA-B*44:03; [22]): 13.4 µM

SEAREHLKNG
Kd (HLA-B*40:02; [22]): 6.59 µM | Kd (HLA-B*45:01; [22]): 8.32 µM | Kd (HLA-B*44:02; [22]): ≥ 36.2 µM | Kd (HLA-B*40:01; [22]): ≥ 39.3 µM | Kd (HLA-B*18:01 [1]; [22]): ≥ 70.5 µM | Kd (HLA-B*44:03; [22]): ≥ 28.1 µM

HEGHQTAAF
Kd (HLA-B*40:02; [22]): 2.81 µM | Kd (HLA-B*45:01; [22]): ≥ 26.2 µM | Kd (HLA-B*44:02; [22]): 1.12 µM | Kd (HLA-B*40:01; [22]): 2.98 µM | Kd (HLA-B*18:01 [1]; [22]): 4.27 µM | Kd (HLA-B*44:03; [22]): 4.75 µM

LLVLCVTQV
Kd (HLA-A*02:03 [7]; source organism: Dengue virus 2 Peru/IQT2913/1996): 0.0384 µM | Kd (HLA-A*02:01 [9]; [27]): 0.0649 µM | Kd (HLA-A*02:17; [27]): ≥ 5 µM
